Data set [1] can be described thus: Imaging of blood vessels in pigs. The data set is classed as in vivo. Particulars: i.v. 0.052 + 0.12 + 0.24 mg/kg, Stryker 1688 AIM and SPY-PHI. The method, then:
Pigs (50 kg) received pHLIP ICG dissolved in PBS or PBS containing 5% Ethanol. Three doses of pHLIP ICG were administered (dose level 1 is 0.052 mg/kg of pHLIP ICG, dose level 2 is an additional administration of 0.12 mg/kg of pHLIP ICG and dose level 3 is an additional administration of 0.24 mg/kg of pHLIP ICG). Each dose was injected intravenously in one bolus followed by a saline flush. Endoscopical and exoscopical imaging was performed at the same time and up to 2 hrs after pHLIP ICG administration. Endoscopic imaging was carried out using the Stryker 1688 system with the L11 light source (808 nm excitation) and adjustable gain. […] Images and video were recorded on a Stryker Connected OR Hub device. […] The overlay mode captures an NIR frame and a white light frame and combines the two to allow surgeons to have the best fluorescence reference (green) while still operating. […] The ENV mode contains the white light frame data in a black/white mode and overlays the fluorescence signal in green to provide a hybrid mode that allows a higher signal-to-noise ratio view of the fluorescence image while still retaining enough of a view of the surrounding tissue to allow the surgeon to continue to operate. The SPY-PHI system has three infrared imaging modes: Overlay, Contrast, and CSF (color-segmented fluorescence). […]

Another data set deals with 4T1 tumor. In words: Biodistribution and kinetics, ex vivo fluorescence imaging of organs. The format is in vivo, BALB/c mice. As to conditions: post-administration, decay after 6 h. As for the experimental part:
BALB/cAcNHsd mice ranging in age from 5 to 6 weeks obtained from Envigo RMS, Inc. were used in the study. Mouse mammary 4T1 cancer cells were subcutaneously implanted in the right flank (8 x 10^5 cells/0.1 mL/flank) of adult female or male mice. The triple-negative 4T1 tumor model closely mimics stage IV of human breast cancer. When tumors reached […] in diameter, single tail vein injections of 0.5 mg/kg of pHLIP ICG in sterile PBS, or PBS with 5% DMSO or 5% Ethanol (vol:vol) (volume of the injection was 100 μl) were performed. Animals were euthanized 5 min, 1, 2, 4, 6, 16, 26 and 48 hrs after pHLIP ICG administration. Several animals were used for each time point plus seven control animals (no pHLIP ICG administration). Tumor, muscles, skin, heart, lungs, liver, spleen, kidneys, brain, pancreas, bone, stomach, small and large intestines were collected, and imaged immediately after necropsy. […] The background signal was determined by introducing an intensity threshold. All the pixels with intensity above the set threshold were counted and the average intensity per pixel was calculated. For organs for which the highest illumination light intensity produced a saturated image, the medium illumination light intensity images were analyzed, then converted to a comparison using experimentally established conversion curves.

Data set [2] relates to Salmonella typhimurium strains (TA1535, TA1537, TA98, TA100 and TA102). The data set is described as follows: In vitro bacterial reverse mutation test. The data set is classed as cell-based. Particulars: up to 5000 µg/plate, with and without S9 mix. As for the experimental part: The objective of this study performed at CRL was to determine the potential genotoxicity of pHLIP ICG using the bacterial reverse mutation test.
Salmonella typhimurium strains (TA1535, TA1537, TA98, TA100 and TA102) were treated with pHLIP ICG at a range of concentrations up to 5000 µg/plate (the standard limit dose for this assay), in the presence and absence of a supplemented rat liver fraction (S9 mix), using the plate incorporation version of the bacterial reverse mutation test.
Bacteria were incubated with standard positive controls, and the response of the various bacterial strains to these agents confirmed the sensitivity of the test system and the activity of the S9 mix.

Data set [3] is described as follows: Peripheral blood micronucleus test in rats (GLP). The data set is classed as in vivo, Sprague Dawley rats. The method, then: The objective of this GLP study performed at CRL was to determine the potential genotoxicity of pHLIP ICG when given by i.v. bolus injection to rats using the peripheral blood micronucleus test.
In order to determine the maximum tolerated dose, a dose-range finding test was performed prior to the main test, where male and female rats (3 animals/sex) were administered a single dose of pHLIP ICG by i.v. injection. The doses evaluated were 14 mg/kg and 25 mg/kg using 5% EtOH in PBS, pH 7.4 as the vehicle.
Blood was collected for micronuclei evaluation at 45 hours post-dose (Groups 3 to 7), and 69 hours post-dose (Groups 3 and 7). The proportion of immature erythrocytes among total erythrocytes in the peripheral blood (%RETs) and the percentage of micronucleated reticulocytes (%MN-RETs) in the NC group were within the laboratory historical negative control range. […] The results from both NC and PC groups confirmed the validity of the assay.

Setting [4] is: male rats, single i.v. 6.25, 12.5 and 25 mg/kg.

“Also recorded” adds a separate entry of the source. Peptide text beside a SMILES is read from it. * marks the point of attachment. X1 = CC1(C)C(/C=C/C=C/C=C/C=C2/N(CCCCCC(=O)NCCN3C(=O)CC(*)C3=O)c3ccc4ccccc4c3C2(C)C)=[N+](CCCCS(=O)(=O)[O-])c2ccc3ccccc3c21

For `CC(C)C[C@H](NC(=O)[C@H](Cc1ccc(O)cc1)NC(=O)[C@H](C)NC(=O)[C@H](CCCNC(=N)N)NC(=O)[C@H](Cc1c[nH]c2ccccc12)NC(=O)[C@@H]1CCCN1C(=O)[C@H](CC(N)=O)NC(=O)[C@H](CCC(N)=O)NC(=O)[C@H](CC(=O)O)NC(=O)[C@H](CC(=O)O)NC(=O)[C@H](CSC1CC(=O)N(CCNC(=O)CCCCCN2/C(=C/C=C/C=C/C=C/C3=[N+](CCCCS(=O)(=O)[O-])c4ccc5ccccc5c4C3(C)C)C(C)(C)c3c2ccc2ccccc32)C1=O)NC(=O)[C@H](C)N)C(=O)N[C@@H](CC(=O)O)C(=O)N[C@@H](CC(C)C)C(=O)N[C@@H](CC(C)C)C(=O)N[C@@H](Cc1ccccc1)C(=O)N1CCC[C@H]1C(=O)N[C@H](C(=O)N[C@@H](CC(=O)O)C(=O)N[C@H](C(=O)N[C@@H](CC(C)C)C(=O)N[C@@H](CC(C)C)C(=O)N[C@@H](CC(C)C)C(=O)N[C@@H](CC(=O)O)C(=O)N[C@@H](CC(C)C)C(=O)N[C@@H](CC(C)C)C(=O)N[C@@H](Cc1c[nH]c2ccccc12)C(=O)N[C@@H](C)C(=O)O)[C@@H](C)O)[C@@H](C)O` (stereo partly shown) [pHLIP ICG] (H-AC(X1)DDQNPWRAYLDLLFPTDTLLLDLLWA-OH), the “Visibility of illuminated blood vessels” value in data set [1] is “clearly visible at 2 h post-injection”. In addition, the “Time of maximum signal in the liver” value with 4T1 tumor is 1 h. In data set [2], the “Toxicity to the bacteria” value is on record as “non-toxic to the bacteria at the levels tested”. In data set [2] (plate incorporation), the “Mutagenicity, revertant colonies” value is given as “did not show any evidence of genotoxic activity; also recorded: negative for the induction of mutagenicity”. Also, in data set [3] (setting [4]), the “Genotoxic activity (%MN-RETs)” value is reported as “did not induce cytogenetic damage; also recorded: showed no evidence of genotoxic activity” and the “Reduction in %RETs (cytotoxicity)” value is reported as “No substantial reduction”. The “Clinical signs in dose-range finding test” value in data set [3] (rats 3 animals/sex, single i.v. 14 mg/kg and 25 mg/kg) is “no adverse clinical signs were noted”.

For the origin of these results see publication PMC7591906, “pHLIP ICG for delineation of tumors and blood flow during fluorescence-guided surgery” (Scientific Reports, 2020).
